Test results published in IntAct's records for PubMed 22705208.

B1: Fibroblast growth factor 12 (Homo sapiens), P61328-2 (parent)
chain: MESKEPQLKGIVTRLFSQQGYFLQMHPDGTIDGTKDENSDYTLFNLIPVGLRVVAIQGVKASLYVAMNGEGYLYSSDVFTPECKFKESVFENYYVIYSSTLYRQQESGRAWFLGLNKEGQIMKGNRVKKTKPSSHFVPKPIEVCMYREPSLHEIGEKQGRSRKSSGTPTMNGGKVVNQDST

Variants of: B1
Settings: with scn5a_human SCN5A

| Variant | effect of a mutation on the interaction |
| --- | --- |
| K9E | disrupting interaction strength |

Variants of: B1
Settings: with scn5a_human SCN5A
Remark: another data set of the same source

| Variant | effect of a mutation on the interaction |
| --- | --- |
| K9E | decreasing interaction strength |
